Reference: US11357847B2, “Modified HSV gD protein and vaccine containing same” (KM Biologics Co., Ltd., priority 2017, dated 2022)
Changes are numbered by the printed parent chain.

How the values were obtained:
[1] = system: various anti-gD2 antibodies; assay: Reactivity of gD variants with anti-gD2 antibodies (competitive ELISA); assay type: binding, human; conditions: for Reactivity with anti-gD2 antibody 1 / Reactivity with anti-gD2 antibody 5 / Reactivity with anti-gD2 antibody 13 / Reactivity with anti-gD2 antibody 72 / Reactivity with anti-gD2 antibody 75 / Reactivity with anti-gD2 antibody 78 / Reactivity with anti-gD2 antibody 82: immobilized gD variant
Description: Each anti-gD2 monoclonal antibody and each gD variant were expressed using an Expi293 expression system.

HVEM = target: T1, HVEM (Homo sapiens, UniProt Q92956); assay: Reactivity of HVEM with gD variants (competitive ELISA); assay type: binding; conditions: compared to the original gD1-315; FIG. 14
T1 sequence (Q92956 39-202): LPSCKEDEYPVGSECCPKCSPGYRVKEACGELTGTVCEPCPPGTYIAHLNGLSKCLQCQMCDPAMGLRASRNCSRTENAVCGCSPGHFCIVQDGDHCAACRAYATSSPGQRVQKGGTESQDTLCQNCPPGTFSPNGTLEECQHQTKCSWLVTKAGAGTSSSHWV
Procedure: From the above discussion, it can be strongly inferred that each variant takes the structure in which FR1 is bound to the receptor binding region. The reactivity of HVEM with each variant was then measured by competitive ELISA.
HVEM can bind gD for the first time when FR1 binds to the receptor binding region and takes a characteristic hairpin structure. […] FR3-deficient gD1-275v5-55 promoted FR1 binding and further HVEM binding over other gD1-315-based variants in which FR3 was present.

gD1-315 = gD1-315 (Human herpesvirus 2, UniProt P03172, R52Q); conditions: compared to wild-type gD immune serum; FIG. 33
Procedure: IgG was purified from serum and analyzed by competitive methods using SPR (Biacore, Inc.) to make antibody amounts uniform.
The anti-gD2 antibody competition test was performed using Biacore 3000 (GE Healthcare), where, in all experiments, HBS-EP buffer (GE Healthcare) was used, the temperature was set to 25° C., and the flow rate was set to 20 μL/min. CMS senor chip (GE Healthcare) was used as the sensor chip, and the experiment was performed based on the recommended protocol. gD1-315-His was immobilized at about 300 RU on the chip surface, and for chip regeneration, glycine-hydrochloride buffer of 0.1 M and pH 2.0 was used and the chip was washed twice at a flow rate of 30 μL/min for 30 seconds. Procedures for competition and calculation of the competition rate were as follows. 10 μg/mL of each anti-gD2 antibody or buffer was applied to the chip under a condition of binding for 1 minute and dissociation for 2.5 minutes. 20 μg/mL of each immune serum purified by IgG was then applied under a condition of binding for 1 minute and dissociation for 5 minutes. After buffer application, the RU detected when immune serum was applied was set to 100%, and the decrease in immune serum response by anti-gD2 antibody application was calculated as the competitive rate.

gD-HVEM interactions = gD-HVEM interactions (Human herpesvirus 2, UniProt P03172, R52Q); conditions: compared to wild-type gD immune serum; FIG. 34
Procedure: Inhibition of gD-HVEM interactions by modified gD immune serum was also analyzed. Specifically, 100 μL of gD1-305-cys-strep dimer adjusted to a concentration of 5 μg/mL with phosphate buffered saline was immobilized in a 96-well microtiter plate at 4° C. overnight. Subsequently, blocking and washing were performed as in the competitive ELISA method described above, 100 μL of IgG purified from each immune serum was added at any concentration and reacted at room temperature for one hour. Subsequently, 1 μg/mL of HVEM (Recombinant Human HVEM/TNFRSF14 Fc Chimera Protein, R&D SYSTEMS, Inc.) was diluted at any dilution fold with 1% BSA PBS, each added at 100 μL and reacted at room temperature for an additional hour. Each well was washed again with PBS-T, then, HRP-labeled antibody (anti-hFc/HRP/1% BSA PBS) was reacted. Each well was washed with PBS-T, then colored, and after the reaction was stopped with 1N sulfuric acid, absorbance of 450 nm/650 nm was measured.

HSV-2 MS strain = assay: Mouse infection-prevention test of modified gD (genital herpes infection model); assay type: in vivo, BALB/c mice; set-up: key to Determination (vs gD1-315) / Determination# (vs gD1-315): ++: minimum effective dose based on the Significant difference test in three-fold common ratio relative to gD1-315(WT) of two or more doses stronger; +: those of one dose stronger; ±: those of an equivalent value
How it was run: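 Female BALB/c mice immunized s.c. three times at 2-week intervals with gD antigen at 0.1–0.003 μg/mouse/time plus MPLA (10 μg) and CpG (1 μg), n=10. Depo-Provera 2 mg s.c. given, then 5×10^5 PFU HSV-2 MS intravaginally 2 weeks post-boost; survival over 21 days, Kaplan-Meier vs saline, scored relative to wild-type gD1-315.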

splenocytes = assay: Cellular immune (T cell immune)-inducing activity, IFN-γ production response of splenocytes; assay type: in vivo, BALB/c mice; conditions: 3 μg/mouse; compared to the wild-type gD immune group; FIG. 25
Procedure: Furthermore, for cellular immune (T cell immune) inducing activity, the IFN-γ production response activity (recall activity) of splenocytes (a pool sample of four cases) prepared from mice immunized with gD1-315v3-55 as an example of a modified gD antigen and wild-type gD (gD1-315) (3 μg/mouse of the administration group) was compared and analyzed. Specifically, 5 weeks old BALB/c mice were immunized with 3 μg of antigen subcutaneously in back at 2-week intervals for a total of 3 times, and splenocytes were collected 2 weeks after the final immunization. Anti-IFN-γ was immobilized in a 96-well plate with a PVDF membrane on the bottom surface and cells were seeded at 1×10^6 cells/100 μL/well. Immune antigens were added as stimulants at 10 mM and the cells were cultured at 37° C. and 5% CO2 for 20 hours. The supernatant was removed and the anti-mouse IFNγ-HRP antibody was reacted, then HRP was stained with AEC reagents to count IFNγ-producing cell numbers with an Image Analyzer (CTL).

[2] = Experiment 1, 0.003 μg/head/time
[3] = Experiment 1, 0.01 μg/head/time
[4] = Experiment 1, 0.03 μg/head/time
[5] = Experiment 2, 0.003 μg/head/time
[6] = Experiment 2, 0.01 μg/head/time
[7] = Experiment 2, 0.03 μg/head/time

Sequence of gD1-315 (P03172 26-340 R52Q): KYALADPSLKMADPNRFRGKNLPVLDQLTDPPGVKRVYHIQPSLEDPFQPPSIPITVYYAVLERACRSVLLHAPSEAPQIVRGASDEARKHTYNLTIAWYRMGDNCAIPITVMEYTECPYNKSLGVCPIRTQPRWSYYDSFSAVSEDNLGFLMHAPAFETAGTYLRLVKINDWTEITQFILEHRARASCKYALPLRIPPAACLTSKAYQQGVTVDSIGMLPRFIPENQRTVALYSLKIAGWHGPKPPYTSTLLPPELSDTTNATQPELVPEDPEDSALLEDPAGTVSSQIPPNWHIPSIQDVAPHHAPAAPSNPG
Sequence of gD-HVEM interactions (P03172 26-330 R52Q): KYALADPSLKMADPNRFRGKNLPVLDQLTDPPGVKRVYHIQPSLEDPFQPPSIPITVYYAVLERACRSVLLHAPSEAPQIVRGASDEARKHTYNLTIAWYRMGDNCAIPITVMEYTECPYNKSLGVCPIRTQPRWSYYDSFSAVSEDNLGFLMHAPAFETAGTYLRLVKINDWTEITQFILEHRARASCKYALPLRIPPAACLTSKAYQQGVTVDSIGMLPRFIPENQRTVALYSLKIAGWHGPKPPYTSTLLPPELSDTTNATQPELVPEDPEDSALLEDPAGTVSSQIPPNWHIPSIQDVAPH

B1: gD1-315v5-55: gD1-315 with glycochains at SC-A, SC-F, linked to T cell epitope peptide DP5 (protein)
chain: KYALADPSLKMADPNRFRGKNLPVLDQLTDPPGVKRVYHIQPSLEDPFQNASIPITVYYAVLERACRSVLLHAPSEAPQIVRGASDEARKHTYNLTIAWYRMGDNCAIPITVMEYTECPYNKSLGVCPIRTQPRWSYYDSFSAVSEDNLGFLMHAPAFETAGTYLRLVKINDWTEITQFILEHRANASCKYALPLRIPPAACLTSKAYQQGVTVDSIGMLPRFIPENQRTVALYSLKIAGWHGPKPPYTSTLLPPELSDTTNATQPELVPEDPEDSALLEDPAGTVSSQIPPNWHIPSIQDVAPHHAPAAPSNPGGPGPGIAFWVRRRAQMAPKPLRIAFWVRRRAQMAPKPLRHHHHHH
modifications: left off: small tags and cut ends
Relative reactivity with antibody No. 82 (gD1-315 wild-type set to 1) ([1]; FIG. 13): approximately 12 fold | Reactivity with anti-gD2 antibody 1 [1]: + ((+): 70% or more) | Reactivity with anti-gD2 antibody 5 [1]: − ((−): less than 30%) | Reactivity with anti-gD2 antibody 13 [1]: + ((+): 70% or more) | Reactivity with anti-gD2 antibody 72 [1]: − ((−): less than 30%) | Reactivity with anti-gD2 antibody 75 [1]: − ((−): less than 30%) | Reactivity with anti-gD2 antibody 78 [1]: − ((−): less than 30%) | Reactivity with anti-gD2 antibody 82 [1]: + ((+): 70% or more) | Reactivity with HVEM (HVEM): highest reactivity | Percentage of antibodies in immune serum competing with antibody No. 1 (gD1-315): little change | Percentage of antibodies in immune serum competing with antibody No. 72 (gD1-315): tend to decrease | Percentage of antibodies in immune serum competing with antibody No. 82 (gD1-315): increased percentage | Inhibition of gD-HVEM interaction by immune serum IgG (gD-HVEM interactions): strong inhibitory effects

B2: gD1-315v3-55: gD1-315 with glycochain at SC-F, linked to two DP5 T cell epitope peptides (protein)
chain: B1 chain with N186R
modifications: left off: small tags and cut ends
Reactivity with anti-gD2 antibody 1 [1]: + ((+): 70% or more) | Reactivity with anti-gD2 antibody 5 [1]: − ((−): less than 30%) | Reactivity with anti-gD2 antibody 13 [1]: + ((+): 70% or more) | Reactivity with anti-gD2 antibody 72 [1]: − ((−): less than 30%) | Reactivity with anti-gD2 antibody 75 [1]: − ((−): less than 30%) | Reactivity with anti-gD2 antibody 78 [1]: − ((−): less than 30%) | Reactivity with anti-gD2 antibody 82 [1]: + ((+): 70% or more) | Mean survival time (HSV-2 MS strain; [2]): >16 days | Significant difference test (vs saline) (HSV-2 MS strain; [2]): *** (*** p < 0.001) | Mean survival time (HSV-2 MS strain; [3]): 15 days | Significant difference test (vs saline) (HSV-2 MS strain; [3]): *** (*** p < 0.001) | Mean survival time (HSV-2 MS strain; [4]): >21 days | Significant difference test (vs saline) (HSV-2 MS strain; [4]): *** (*** p < 0.001) | Mean survival time (HSV-2 MS strain; Experiment 1, 0.1 μg/head/time): >21 days | Significant difference test (vs saline) (HSV-2 MS strain; Experiment 1, 0.1 μg/head/time): *** (*** p < 0.001) | Determination (vs gD1-315) (HSV-2 MS strain; Experiment 1, minimum effective dose relative to gD1-315(WT)): ++ | Mean survival time (HSV-2 MS strain; [5]): 7 days | Significant difference test (vs saline) (HSV-2 MS strain; [5]): N.S. | Mean survival time (HSV-2 MS strain; [6]): >16 days | Significant difference test (vs saline) (HSV-2 MS strain; [6]): N.S. | Mean survival time (HSV-2 MS strain; [7]): >22 days | Significant difference test (vs saline) (HSV-2 MS strain; [7]): *** (*** p < 0.001) | Mean survival time (HSV-2 MS strain; Experiment 2, 0.1 μg/head/time): >22 days | Significant difference test (vs saline) (HSV-2 MS strain; Experiment 2, 0.1 μg/head/time): *** (*** p < 0.001) | Determination# (vs gD1-315) (HSV-2 MS strain; Experiment 2, minimum effective dose relative to gD1-315(WT)): + | Percentage of antibodies in immune serum competing with antibody No. 1 (gD1-315): little change | Percentage of antibodies in immune serum competing with antibody No. 72 (gD1-315): tend to decrease | Percentage of antibodies in immune serum competing with antibody No. 82 (gD1-315): increased percentage | IFN-γ production response activity (recall activity) of splenocytes (splenocytes): higher response activity
